Results: patent publication US20040253629A1 (Stanford University, published 2004)

B2: Bok-L (Bcl-2-related ovarian killer, long form, rat) (other)
chain: MEVLRRSSVFAAEIMDAFDRSPTDKELVAQAKALGREYVHARLLRAGLSWSAPERASPAPGGRLAEVCTVLLRLGDELEQIRPSVYRNVARQLHIPLQSEPVVTDAFLAVAGHIFSAGITWGKVVSLYSVAAGLAVDCVRQAQPAMVHALVDCLGEFVRKTLATWLRRRGGWTDVLKCVVSTDPGFRSHWLVATLCSFGRFLKAAFFLLLPER
notes: also called full-length Bok protein
B5: BHRF1 (other)
chain: MAYSTREILLALCIRDSRVHGNGTLHPVLELAARETPLRLSPEDTVVLRYHVLLEEIIERNSETFTETWNRFITHTEHVDLDFNSVFLEIFHRGDPSLGRALAWMAWCMHACRTLCCNQSTPYYVVDLSVRGMLEASEGLDGWIHQQGGWSTLIEDNIPGSRRFSWTLFLAGLTLSLLVICSYLFISRGRH

Tests used:
Mcl-1 (rat) [1] = biological target: T1, Mcl-1 (rat) (rat, UniProt Q9Z1P3 1-330); assay: yeast two-hybrid, Bok-S-GAL4-AD vs GAL4-BD fusion
T1 sequence (Q9Z1P3 whole entry, the tested form may be a part): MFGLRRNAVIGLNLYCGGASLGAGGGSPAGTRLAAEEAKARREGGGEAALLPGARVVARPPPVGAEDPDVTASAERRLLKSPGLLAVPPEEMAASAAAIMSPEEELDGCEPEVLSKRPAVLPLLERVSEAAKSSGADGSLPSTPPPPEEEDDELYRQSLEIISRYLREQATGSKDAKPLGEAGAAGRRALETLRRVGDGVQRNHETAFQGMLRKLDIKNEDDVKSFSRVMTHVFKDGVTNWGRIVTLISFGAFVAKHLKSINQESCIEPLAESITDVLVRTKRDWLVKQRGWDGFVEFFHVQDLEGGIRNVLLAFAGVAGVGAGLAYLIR

BHRF1 = biological target: B5; assay: yeast two-hybrid, Bok-S-GAL4-AD vs GAL4-BD fusion
Mcl-1 (rat) [2] = biological target: T1, Mcl-1 (rat); assay: yeast two-hybrid, yeast cell growth grade (++ prominent, + moderate)
Mcl-1 (rat) [3] = biological target: T1, Mcl-1 (rat); assay: yeast two-hybrid, mutant Bok-L-GAL4-AD vs GAL4-BD fusion
[4] = biological target: B2; assay: yeast two-hybrid, yeast cell growth grade (++ prominent, + moderate)

B1: Bok-S (short splicing variant of Bok, rat) (other)
chain: MEVLRRSSVFAAEIMDAFDRSPTDKELVAQAKALGREYVHARLLRAGLSWSAPERASPAPGGRLAEVCTVLLRLGITWGKVVSLYSVAAGLAVDCVRQAQPAMVHALVDCLGEFVRKTLATWLRRRGGWTDVLKCVVSTDPGFRSHWLVATLCSFGRFLKAAFFLLLPER
notes: also called truncated Bok
B1: no binding (Mcl-1 (rat) [1]); no binding (BHRF1).

B2: binds (Mcl-1 (rat) [2]).

B3: BokADE (Bok-L G75A) (other)
chain: MEVLRRSSVFAAEIMDAFDRSPTDKELVAQAKALGREYVHARLLRAGLSWSAPERASPAPGGRLAEVCTVLLRLADELEQIRPSVYRNVARQLHIPLQSEPVVTDAFLAVAGHIFSAGITWGKVVSLYSVAAGLAVDCVRQAQPAMVHALVDCLGEFVRKTLATWLRRRGGWTDVLKCVVSTDPGFRSHWLVATLCSFGRFLKAAFFLLLPER
notes: also called BokADE: G 75 A
B3: no binding (Mcl-1 (rat) [3]).

B4: BokAAA (Bok-L 75 AAA 77) (other)
chain: MEVLRRSSVFAAEIMDAFDRSPTDKELVAQAKALGREYVHARLLRAGLSWSAPERASPAPGGRLAEVCTVLLRLAAALEQIRPSVYRNVARQLHIPLQSEPVVTDAFLAVAGHIFSAGITWGKVVSLYSVAAGLAVDCVRQAQPAMVHALVDCLGEFVRKTLATWLRRRGGWTDVLKCVVSTDPGFRSHWLVATLCSFGRFLKAAFFLLLPER
notes: also called BokAAA: 75 AAA 77
B4: no binding (Mcl-1 (rat) [3]).

B5: binds [4].

B6: BokGGGG (Bok-L 71 LLRL 74 to 71 GGGG 74) (other)
chain: MEVLRRSSVFAAEIMDAFDRSPTDKELVAQAKALGREYVHARLLRAGLSWSAPERASPAPGGRLAEVCTVGGGGGDELEQIRPSVYRNVARQLHIPLQSEPVVTDAFLAVAGHIFSAGITWGKVVSLYSVAAGLAVDCVRQAQPAMVHALVDCLGEFVRKTLATWLRRRGGWTDVLKCVVSTDPGFRSHWLVATLCSFGRFLKAAFFLLLPER
notes: also called BokGGGG mutant
B6: no binding (Mcl-1 (rat) [3]).
